Values quoted from earlier work, collected in PMC4459106.

Molecular target: KIM15-31 (HePTP) 15-31 (Homo sapiens) (UniProt P35236)

**Q.** With ppERK2 (from UniProt P63086) as the substance, how does the Kd read?
**A.** 1300 nM
